The values below come from paper PMC4643982.

In the series the target is T1, EutR::MBP (Salmonella enterica serovar Typhimurium SL1344) (UniProt Q9ZFU7).
T1 sequence: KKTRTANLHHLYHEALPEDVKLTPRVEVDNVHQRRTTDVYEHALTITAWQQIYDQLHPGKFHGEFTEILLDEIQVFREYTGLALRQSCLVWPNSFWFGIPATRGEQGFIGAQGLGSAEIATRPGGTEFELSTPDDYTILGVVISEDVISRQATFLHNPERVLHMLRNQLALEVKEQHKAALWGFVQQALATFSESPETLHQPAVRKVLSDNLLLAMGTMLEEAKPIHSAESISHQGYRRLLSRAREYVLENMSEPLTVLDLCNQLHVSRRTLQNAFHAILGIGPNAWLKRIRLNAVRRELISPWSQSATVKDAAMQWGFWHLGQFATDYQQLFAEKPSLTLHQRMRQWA
The series is described as follows: competition. The following applies: 60 mM HEPES pH 7.5, 300 mM KCl, 25 mM MgCl2, 5 mM EDTA, 3 mM DTT, 500 ug/ml BSA, 50 ng poly-dIdC, 1 mM ethanolamine, 150 nM vitamin B12; 25 min at 25 C; 6% ….

For the sequence “CCGGAATTGCCAGCTGGGGCGCCCTCTGGTAAGGTTGGGAAGCCCTGCAAAGTAAACTGGATGGCTTTCTTGCCGCCAAGGATCTGATGGCGCAGGGGATCAAGATCTGATCAAGAGACAGGATGAGGATCGTTTCGCATGATTGAACAAGA (double strand) [kan promoter probe]”, the binding entry was “no binding”.
